This note sets out measurements from a protein production outcome set (Wang et al. 2014).

The series is described as follows: label from the status in PepcDB records.
Regarding “MFGAKKNNTKIIEQLEKKCNGLGDILRSIGNTMAVIEFTTDGVILEANQNFLTTMKYSLSEIKGKHHSMFCLPEVVNSSAYSDFWKDLRDGKARSGLFRRIAKGGIDVYLEANYLPISDNNGYVYKIIKFANDITQRHYEMLDLRNTIAAANRSMAIIEFKPDGTIITANENFLRAMDFNIDEIKGKHHSMFCDSNYRHSKDYVQFWEDLREGKFQSGKYIRYGRNNKKVYLEASYNPVKNDDGKIYKVIKFATDISEQVKKDQEKLRLISELAEKNDNLTQDGDRVIENTVSNVQNIADMMSQSSNLVSSLNQQSDEIKSIIQTISDIADQTNLLALNAAIEAARAGEHGRGFAVVADEVRNLAERTGHSVNEITTTINSIRNVTSQVVESIKSGLEDVNQSVELAKEARECMEKIRESSAEVAKAMS”, the protein production result was “failed”.
The same measure for “MFGLEAIDLARIQFAFTVSFHIIFPAITIGLASYLAVLEGLWLKTNEEVYRDLYHFWSKIFAVNFGMGVVSGLVMAYQFGTNWSHFSDFAGSITGPLLTYEVLTAFFLEAGFLGVMLFGWNRVGPGLHFFATVMVAIGTLISTFWILASNSWMQTPQGFEIVDGRVIPVDWLAVIFNPSFPYRLLHMSVAAFLATAFFVGASAAWHLLRGRDNPAIRKMLSMAMWMALIVAPVQALIGDAHGLNTLEHQPAKIAAMEGHWDNSSGEPTPLILFGWPDMQREETRFKVEIPVLGSLILKHSLTEPIPALKDFPPEDRPNSTVVFWSFRIMAGLGMLMILVGVWSLWLRWRGQDKLFNSKAFLRLTLLMGPSGLIAILAGWFTTEMGRQPWVVYGLMRTADASSAQSVTQMSLTLLTFVVVYFSLFGVGIGYMMRLVRKGPVTHEGRETNPGGAGQKRTPARPLSAAGEGFDEEHDGHAQAADRDQDKRN”: “failed”; for “MFGLVDAVSFYARAEKVFDPSIRHKPVVVLTNNDGCICAVCPIARQLGVPKFVPYFKVKSFLAKHGVVVRSSNYELYADLSERMMNVIARYSDNHYVYSIDESFLHFKNFSCVDNWHEYGHVIRKAVWRETRLPVGVGFGATLTLAKAANHASKKLSGFDGVAVIDDKASRKEILSRMSLTEVWGIGSKLGKRLSILGLKNGWDLANQSPKAMRGQFGVVVERTVNELNGMPCLQWDEIGQDKQEIFSTRSFGQRVTDGHALKAALSSHASIVGAKVRRQGSLIKRLVIFASSSPHDDSYYKKSVIYEFPIATDNILKLVGAISYVFDNIYRQGVSFYRCGVGGVELENSQFQQQDMFSLSVNNPPLMKCYDQINHRYGRGAVEVAIAEKNEKWAMRRNFLSPRSTSNWSEIPKINCLEHHHHHH”: “failed”; for “MFHFSLSPRRTGRGARPRARLGAMLALAFLAGGLTAGPGNAAEGAGATAERQYCACMALARSRPDQAFEKAGQWKALGGGVPARHCEAVALLGLKEYGEAARRLEALAEDVKLARGLRVDLLTQAGQAWLAVGDLSRAYANQTTALQLAGARAQSGAPALSSVLPDLYIDRAVTLAQAGRDDEATTDLTKALALQPASVTALVLRASAQRRQGRLTAARADAEAAVKRAPNDAEARLERGDVRLALGDRDGARADWLKVLELAPREGAADAARARIETLDLKVR”: “failed”.
Turning to “MFIGGAIISFLFLFGYMWKEAHSNRIRHVTLSFPHFPDNGPPLTIFFISDIHRRSVSCRMLETVKGKADLVVIGGDLAEKGVPAARVRENVRRLQTVAPVYFVWGNNDDEVDYDLQSLLEEERVYVLKNKAEVWEHGGVPIALIGVGDVSRKEADIARALEHVPPESFRILACHNPAIIARLEDEQHISLVLSGHTHGGQIRLFSFGLYEKGGLKWHGNTALFTSNGYGTTGVPLRLGAPAETHLIKIVPGKLATEKKCLSKTGKTMLEHHHHHH”, the protein production entry is listed as “failed”.
In the case of “MFKALLPQSKQKLQHAKYFAKKMHQASASDQLQSHWHLQQWWILIAGFFLFGSVLVFAFTRPISSTKIEAEYLKEVDPQIYTLLNGEMLTPPPEVDESLISAAIVEANQLEQQYASQHSETNAPSASENLMHHNLIDTQFVDRKWDKMNPRYKQRLLMVFKIMKERYGYELVLLEGYRSPERQNLLSGNPNTTRARGYQSYHQFGLAADVAFKRNGKVVISERDPWAMRGYQLYGEVAESVGLTWGGRWKSIQDYGHTEYRMPGLRKTKEMAEQLIAEGQLTANAAS”, the protein production result is reported as “failed”.
On to “MFKASHVLQGEDQTRSAAEFFPVISANYAVDEEAYLGELLQLADPGPDGIEAIRRNARALIETVRSRDNAVDTLDALLRQYSLDTQEGLMLMCLAEALLRVPDAATADALIRDKLSAADWQRHLGQSDNVLVNFAAWGLVMTGKVVNIDERTDGRAPSVISRLVQRSGEPVIRAAMNQAMKLMGKQFVLGRTISEALKNGRPCREQGYTYSFDMLGEAALTAADAEKYMADYRQAIDTVGAEPQVGPGPRPSISIKLSALHPRYEVAQRERVLSELFANVLELAVRARKLNVGITIDAEEADRLELSLELYEKLMRDPAIAGWGEFGLVIQAYSKRCLPVLVWLTLLGRELGARIPLRLVKGAYWDSEIKQCQVQGADGYPVYTRKEGTDTSYLACARYLLSEHTRGVIYPQFASHNAHTVTAILALADEARAAGGEERDFEFQRLHGMGDALYDTVIEKYRRNVRIYAPVGAHKDLLPYLVRRLLENGANSSFVHKLVDPRVPVETLIQHPVTQLRQFKTLANDRIPLPQAIFGAGRKNSQGINMNIQNQWNELELAYKPHLTRQWQAAPIVNGEKLSGPAHEVRCPYDLERLVGSVQYASAEQAGKALDVLQAAWPRWSATPVDERAGILERLADLLEAQRGELMALCTLEAGKSLQDGIDEIREAVDFCRYYAQQARQRLVREELRGPTGERNELFYEGRGIFACVSPWNFPLAIFLGQISAALVAGNTVLAKPAEQTSLIAARTVELMFEAGLPKDVIALLPGDGATLGGVFCRDARVAGVAFTGSTDTARIINRQLAEKPGAIATLIAETGGQNAMIVDSTALPEQVIKDAVQSAFTSAGQRCSALRVMYVQQDIAERVIELLKGAMAELKVGPTEVRVSDVGPVIDAEAKAGLEQHIAALKAAGKLIAETKVPGNLNGHFVAPVAFEISGIDELKKENFGPVLHVVRYAAQDLEKVVQAINATGFGLTMGVHSRNEETARRIEELARVGNLYINRNQIGAVVGVQPFGGHGLSGTGPKAGGPNYLLRFVSERTTSVNTTAVGGNA”, for which the protein production result is recorded as “failed”.
The result for “MFKHCLICTDFSDGLQRLAGFVEELSLSGITKLIFLHTVSVWEDEHIADVDESKLKEAKTYLESLVGQVPPGIEVKVEVSSVRYVDLVNQLVEQEAIDLIINGMPVRSNLESKLFGSHTLSLAKSTKVPVMILRPQLVSTYTVEEMALRCQHLWRNLLVPYDASSAGNYLIERLKSALEKAPPGKVESCYFLSILEDGMRRPELLEIRRQEAEAKLAEIKQQFSPLVPNIITEVRHGSPVQEILDTAFVNDITAIAVASRRATLLDWTVPSLTDSILNRSWFPLLFFSPKG” reads “failed”; that for “MFKIYNNGNPIPMGYSQAVENNVQITNFALFSAAAIGVELCLFDEQNQETRLPMVRTENVWHLAVTGVKTGTEYAFRIHGEFANPQKLILDPYAKAVNGKPDLSSEESRSWFLLSDNRDNAHLAPRAVVIS”, “failed”; that for “MFKKGVVPSQGLRIIIVGCGKVGRTLVEQLGKEGHDITIIDKNRERISQVSNIYDVMGIAGNGASYKILQEAGIDDADLIIAVTGSDELNLLCCTIATQVGNCAAIARVRTPEYSQEAKYLRDKLGLALIINPELEAAIEMAHILHLPSSLEVTNFAHGQAQLIKYEIPEGSILDGTKLMDLGTRHHANILIGAVERDDEVTIPSGDFVLRKGDKLSFVGERRHTKEFFSHIGVNTHSVKNTLIIGGGKAAYYLAKQLISRGIKVKIIENSFERCEELSILLPDAVIINGDGTEQALLKEEGIETCQSFVPLTGIDEENIMLTLYAKQVSNAKVITKLNRITFTNVINSLDLGSVISPKYITSEAIIAYVRAKKNSMNCNIETLYHMYDSRVEAIEFFVSENSNVTDIPLRDLKLKKHLLICFINRNGKIIIPTGNDCIQKNDTVMIITTNTGFTNLQDIME”, “failed”.
The result for “MFKKLLHSLFAGLTFMAAVAAVPAHAQEADAQTTVKTAVDDVLATIKGDSDLRSGNMQKVFQLVDQKIVPRADFKRTTQIAMGRFWSQATPEQQQQIQDGFKTLLVRTYAGALANVRNQTVSYKPFRAAADDTDVVVRSTVNNNGEPVALDYRMEKSANGWKVYDINISGLWLSETYKNQFAEVISKRGGVSGLVQFLDERNAQLAKGPAKLEHHHHHH” reads “not failed”; that for “MFKLHILFALSAPQRIAFWVWRGLFVVALAAAGIGSTRAQSYSFRDYAQSDGLQGMSITGLVEDRRGVVWVATELALHRFERDRFIPVGQDQGLDARYTRALTLDHAGRLWVATANGVFVRNGEQFVQVLDHGKRIRADAGNVIAAYRTGVAVASNGALLALTPEADGHWQVQPLPVRTADGKLREPGTTLLADGQFLWVPCDGGVCRLDARGTVVEALSEADGVPARRWRVIFRERGGRLWLRGGGTIVSRAPGGARFTEHPANPENSFNTLSGSTTMVEDARGRMLTRSDHGLVRWEGTHWTDIGADQGLQLNALVGPLLLQSNGTLWLGTRGMGLQRVLGYDSIEHLTEAQGMPPAPTWTMQRLPNGMLAVGADGGASLLKRNATHAQPWLLEDGAVLSQALNITVAPDGAAWVSYYSGAIARRDPLTGVTSRVMDLPIAGYKLLFDKAGTVWIATPRGLVRGQAAPPYALAPDPAMEGKFIGDIDFDRQGRLWAATRDGLYRRNGTTWVKIPVRGSLPSQDMLQIDFAPNGEIWLSLRDTGLWHGRLQGDGSLLLQAVDDPLISRIMPYILRHDRKGRLWVGSSQGLDLYQNGHWSRITRAEGLLWDDMSSNAFLEDDDGSIWIGSSRGLSHLRDPQRLFAAQPLRVDIAEVRRGAQIVHSGASIAWSETPLEIELSTPGVEGGANRISFRYRVQARWTTSSLSHLTYPLLPPGNYTLEVQALDAYQRSASPIARFQFVIRPPWWRSIAAIAGYLLLAVVAVIALLRWRTAKLLRRKHELEQLVAERTAELEQDKRDLEAARAELSLKATHDELTGLLNRAGILAALREMLLHAARSGRPLAVVLIDLDHFKLVNDQHGHLAGDAVLAGVGHRMDTLVRGDDRIGRYGGEELLALLPGLTPGATHRLDAMHRGICGDYPVDDGWLHVTCSIGVAWFQAGETLEQLLARADAALYRAKRSGRNRIDYDHVPLDRLGQVLPLDPQQRE”, “failed”.
The same measure for “MFKNLIWLKEVDSTQERLKEWNVSYGTALVADRQTKGRGRLGRKWLSQEGGLYFSFLLNPKEFENLLQLPLVLGLSVSEALEEITEIPFSLKWPNDVYFQEKKVSGVLCELSKDKLIVGIGINVNQREIPEEIKDRATTLYEITGKDWDRKEVLLKVLKRISENLKKFKEKSFKEFKGKIESKMLYLGEEVKLLGEGKITGKLVGLSEKGGALILTEEGIKEILSGEFSLRRS”: “not failed”; for “MFKNNDFIYIEYTAKIKDTGEIVDTTNEEEAKKANIYDETRNYGPRLVILGENRLIKGLEEALYNFNLNEEKTIEIPPEKAYGERDNSKIKIVPLGELRRQGITAVPNRVLRLSDGSLAVIRSVSGGRVVLDLNHPLAGRTLVYNVKVVKVLNNAKDKIMALIERRFSSKYANGFNVELDDGKKSVRITIPKDLYLVEDLQINVYSLAYEIVNYVLADYTVEVLQQYNKSTFSSS”: “failed”; for “MFKNVKKSVTRTIASAMLLILLLSVATTGFAIFTLASSLNDAEAVNVAGSMRMQSYRLAHDIQIRSVDYSSHIDAFEHSIYSSSMKALQHWSVPEDITHDYYRLIMRWHELKSVLRGEDPSQYQLLVAGFVQQIDDFVFKLQNFSEQKLINLAWIGGLGLGGILCASMFVVHFIRLEVVRPLRALVFASERIKNRSFDINLAVSSDNEMGILTRTFNRMATDLGKLYRGLEQAVDEKTRKLQHANQSLEVLYDSSKELTASRINQDNFQAILKHIASLEGIKAVKLEIEQLGEPNWILTEGEECCHDCDDECHAEPLTLDGEHLGSLYWKAGLPCPNETLIDNFVQILSRAVYYNRAQRQAEQILLMEERATIARELHDSLAQALSYLKIQVALLKRSVKNLPDEKAIAQANQVIAELDTGLSAAYTQLRELLTTFRLTIKEGSFGQALQEMVETLNEQTTAEITLKNRLSSTELDAHQQVHLLQLIREAALNAIKHAQADHIHIQCLDCDGKVTVTVSDDGVGFEHQDEKINHYGMTIMQERAARLHADLQIEASINKGCTVKLEFQHSKEVNFDSV”: “failed”.
